The assay deals with pentameric IgM-Fc core containing Cμ4, Cμ3 and the J chain (human, UniProt P01871 106-433; P01591 23-159, N-linked glycosylation at Asn563). The experiment in a line: BLI; FcμR (20 μg/ml) captured on AMC (anti-mouse IgG-Fc capture) biosensors by the anti-FcμR antibody RR-16; full-length or proteolysed IgM 0.08-10 nM in solution; PBS, 0.005% Tween 20, 25 °C; apparent Kd from response against IgM concentration, 1:1 binding model. The conditions noted are these: both partners purified. (In BLI a coated tip is dipped into the sample, and binding shifts an interference pattern.)

B1: human FcμR ectodomain (receptor, UniProt O60667 17-251, looked up)
chain: LRILPEVKVEGELGGSVTIKCPLPEMHVRIYLCREMAGSGTCGTVVSTTNFIKAEYKGRVTLKQYPRKNLFLVEVTQLTESDSGVYACGAGMNTDRGKTQKVTLNVHSEYEPSWEEQPMPETPKWFHLPYLFQMPAYASSSKFVTRVTTPAQRGKVPPVHHSSPTTQITHRPRVSRASSVAGDKPRTFLPSTTASKISALEGLLKPQTPSYNHHTRLHRQRALDYGSQSGREGQG
notes: FcμR, human, ectodomain; Full-length human FcμR has 390 aa; 251 aa are extracellular: 17-aa signal peptide, 107-aa Ig-like domain, 127-aa stalk; Only the Ig-like domain is resolved in the cryo-EM maps; also called TOSO; FAIM3; source: bought: R&D, Catalog 9494-MU-050, lyophilized, suspended in PBS
In the case of B1, the Kd is 0.7 ± 0.1 nM.

(Values after publication PMC7614769, “Structural basis for Fc receptor recognition of immunoglobulin M” (Nature structural & molecular biology, 2023).)
